What was measured:
[1] = target: T1, activin B (Homo sapiens, UniProt P09529); assay: similar binding assay (Biacore); settings: CHO-cell-expressed material
T1 sequence (P09529 293-407): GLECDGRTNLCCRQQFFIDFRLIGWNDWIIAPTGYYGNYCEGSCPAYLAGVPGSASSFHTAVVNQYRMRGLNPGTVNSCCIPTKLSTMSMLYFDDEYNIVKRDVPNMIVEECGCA

[2] = pharmacokinetic studies in rats; format: in vivo, rat; settings: initial administration 30 mg/kg
Method: The ActRIIA-hFc was very stable in pharmacokinetic studies. Rats were dosed with 1 mg/kg, 3 mg/kg, or 10 mg/kg of ActRIIA-hFc protein, and plasma levels of the protein were measured at 24, 48, 72, 144 and 168 hours. In a separate study, rats were dosed at 1 mg/kg, 10 mg/kg, or 30 mg/kg.

[3] = pharmacokinetics in cynomolgus monkeys; format: in vivo, cynomolgus monkey; settings: initial administration 10 mg/kg
[4] = target: T2, activin A (Homo sapiens, UniProt P08476); assay: A-204 reporter gene assay, pGL3(CAGA)12 luciferase; format: cell-based
T2 sequence (P08476 311-426): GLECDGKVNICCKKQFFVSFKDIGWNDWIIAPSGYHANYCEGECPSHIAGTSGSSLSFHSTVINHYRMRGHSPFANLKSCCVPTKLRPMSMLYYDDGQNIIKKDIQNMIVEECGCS
Description: An A-204 reporter gene assay was used to evaluate the effects of ActRIIB-Fc proteins and GDF traps on signaling by GDF-11 and activin A. Cell line: human rhabdomyosarcoma (derived from muscle). Reporter vector: pGL3(CAGA)12 (described in Dennler et al, 1998, EMBO 17: 3091-3100). The CAGA12 motif is present in TGF-beta responsive genes (e.g., PAI-1 gene), so this vector is of general use for factors signaling through SMAD2 and 3.
Day 1: Split A-204 cells into 48-well plate.
Day 2: A-204 cells transfected with 10 ug pGL3(CAGA)12 or pGL3(CAGA)12(10 ug)+pRLCMV (1 μg) and Fugene.
Day 3: Add factors (diluted into medium+0.1% BSA). Inhibitors need to be preincubated with factors for 1 hr before adding to cells. Six hrs later, cells were rinsed with PBS and lysed.
This is followed by a luciferase assay.
(§1) In addition, an A-204 Reporter Gene Assay was used to evaluate the effects of ALK4-Fc:ActRIIB-Fc heterodimer and ActRIIB-Fc:ActRIIB-Fc homodimer on signaling by activin A, activin B, GDF11, GDF8, BMP10, and BMP9. Cell line: Human Rhabdomyosarcoma (derived from muscle). Reporter vector: pGL3(CAGA)12 (as described in Dennler et al, 1998, EMBO 17: 3091-3100). The CAGA12 motif is present in TGFβ responsive genes (PAI-1 gene), so this vector is of general use for factors signaling through Smad2 and 3. An exemplary A-204 Reporter Gene Assay is outlined below. • Day 1: Split A-204 cells into 48-well plate. • Day 2: A-204 cells transfected with 10 ug pGL3(CAGA)12 or pGL3(CAGA)12(10 ug)+pRLCMV (1 ug) and Fugene. • Day 3: Add factors (diluted into medium+0.1% BSA). Inhibitors need to be pre-incubated with Factors for about one hr before adding to cells. About six hrs later, cells are rinsed with PBS and then lysed.
(§2) Following the above steps, a Luciferase assay was performed.

[5] = target: T3, GDF11 (Homo sapiens, UniProt O95390); assay: A-204 reporter gene assay, pGL3(CAGA)12 luciferase; format: cell-based
T3 sequence (O95390 299-407): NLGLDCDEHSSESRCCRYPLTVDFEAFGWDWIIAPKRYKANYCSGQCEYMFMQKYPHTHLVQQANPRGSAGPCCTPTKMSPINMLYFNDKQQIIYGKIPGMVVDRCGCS
Description: (§3) Day 1: Split A-204 cells into 48-well plate. […]
as §1, §2

[6] = target: T3, GDF11; assay: Biacore assay, receptor captured with anti-hFc antibody; format: binding
Method: (§4) Binding of certain ActRIIB-Fc proteins and GDF traps to ligands was tested in a Biacore assay.
(§5) The ActRIIB-Fc variants or wild-type protein were captured onto the system using an anti-hFc antibody. Ligands were injected and flowed over the captured receptor proteins.

[7] = target: T4, GDF8 (Homo sapiens, UniProt O14793); assay: as above; format: binding
T4 sequence (O14793 267-375): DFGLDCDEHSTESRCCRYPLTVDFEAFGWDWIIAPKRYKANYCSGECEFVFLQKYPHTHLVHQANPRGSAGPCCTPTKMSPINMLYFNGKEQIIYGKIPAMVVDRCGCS
Method: as §4, §5

[8] = target: T2, activin A; assay: as above; format: binding
Method: as §4, §5

[9] = test system: activin; assay: ActRIIB-Fc affinity for ligand (description); format: binding; settings: ascertained by Applicants
[10] = target: T3, GDF11; assay: ActRIIB-Fc affinity for ligand (description); format: binding; settings: ascertained by Applicants
[11] = target: T4, GDF8; assay: A-204 reporter gene assay, pGL3(CAGA)12 luciferase; format: cell-based; parameters: host or cells: exogenous factor added to A-204 cells (human rhabdomyosarcoma)
Description: as §3, §1, §2

[12] = test system: activin; settings: see U.S. Pat. No. 7,842,663; cited from earlier work
[13] = target: T3, GDF11; settings: see U.S. Pat. No. 7,842,663; cited from earlier work
[14] = target: T5, BMP10 (Homo sapiens, UniProt O95393); assay: Biacore-based binding assay, receptor captured with anti-Fc antibody
T5 sequence (O95393 317-424): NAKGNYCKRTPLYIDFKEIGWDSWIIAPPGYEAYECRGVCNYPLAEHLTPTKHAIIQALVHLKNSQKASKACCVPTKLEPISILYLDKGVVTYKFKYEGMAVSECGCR
Method: (§6) A Biacore™-based binding assay was used to compare ligand binding selectivity of the ALK4-Fc:ActRIIB-Fc heterodimeric complex described above with that of ActRIIB-Fc and ALK4-Fc homodimer complexes. The ALK4-Fc:ActRIIB-Fc heterodimer, ActRIIB-Fc homodimer, and ALK4-Fc homodimer were independently captured onto the system using an anti-Fc antibody. Ligands were injected and allowed to flow over the captured receptor protein. Results are summarized in the table below, in which ligand off-rates (kd) most indicative of effective ligand traps are denoted in bold font.

[15] = target: T6, BMP6 (Homo sapiens, UniProt P22004); assay: as above
T6 sequence (P22004 375-513): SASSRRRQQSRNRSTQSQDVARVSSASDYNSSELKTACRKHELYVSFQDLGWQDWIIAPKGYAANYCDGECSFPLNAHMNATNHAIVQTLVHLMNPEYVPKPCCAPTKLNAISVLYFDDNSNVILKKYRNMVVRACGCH
Method: as §6

[16] = target: T7, BMP9 (Homo sapiens, UniProt Q9UK05); assay: as above
T7 sequence (Q9UK05 320-429): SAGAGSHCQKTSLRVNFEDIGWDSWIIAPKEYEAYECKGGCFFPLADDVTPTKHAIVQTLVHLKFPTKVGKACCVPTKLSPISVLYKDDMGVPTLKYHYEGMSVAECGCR
Method: as §6

[17] = target: T3, GDF11; assay: as above
Method: as §6

[18] = target: T8, GDF3 (Homo sapiens, UniProt Q9NR23); assay: as above
T8 sequence (Q9NR23 251-364): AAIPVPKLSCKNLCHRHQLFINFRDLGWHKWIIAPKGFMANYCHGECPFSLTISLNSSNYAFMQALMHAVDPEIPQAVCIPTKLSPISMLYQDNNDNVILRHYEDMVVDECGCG
Method: as §6

[19] = target: T4, GDF8; assay: as above
Method: as §6

[20] = target: T2, activin A; assay: as above
Method: as §6

[21] = target: T1, activin B; assay: as above
Method: as §6

[22] = target: T1, activin B; assay: A-204 reporter gene assay, pGL3(CAGA)12 luciferase; format: cell-based; parameters: host or cells: exogenous factor added to A-204 cells (human rhabdomyosarcoma); settings: Example 13
Description: as §1, §2

Molecule: ActRIIA-hFc: extracellular domain of human ActRIIa fused to a human Fc domain with a minimal linker (SEQ ID NO: 32); homodimer
- affinity for activin B ligand compared with that reported for ActRIIa-hFc expressed in human 293 cells [1]: higher affinity
- circulating levels of the drug after two weeks [2]: 30 µg/mL
- circulating levels of the drug [3]: 30 µg/mL

B1: ActRIIB(20-134)-hFc: extracellular domain of human ActRIIB (20-134, R64) fused to a human Fc domain with a minimal linker (SEQ ID NO: 40) (protein)
chain: GRGEAETRECIYYNANWELERTNQSGLERCEGEQDKRLHCYASWRNSSGTIELVKKGCWLDDFNCYDRQECVATEENPQVYFCCCEGNFCNERFTHLPEAGGPEVTYEPPPTAPTGGGTHTCPPCPAPELLGGPSVFLFPPKPKDTLMISRTPEVTCVVVDVSHEDPEVKFNWYVDGVEVHNAKTKPREEQYNSTYRVVSVLTVLHQDWLNGKEYKCKVSNKALPVPIEKTISKAKGQPREPQVYTLPPSREEMTKNQVSLTCLVKGFYPSDIAVEWESNGQPENNYKTTPPVLDSDGSFFLYSKLTVDKSRWQQGNVFSCSVMHEALHNHYTQKSLSLSPGK
- inhibition of activin A activity ([4]; A-204 reporter gene assay): potent inhibitor
- inhibition of GDF-11 activity ([5]; A-204 reporter gene assay): potent inhibitor
- Koff, GDF11 [6]: 0.000113 s⁻¹
- Koff, GDF8 [7]: 3.45e-05 s⁻¹
- Koff, Activin A [8]: 0.000159 s⁻¹
- Kon, Activin A [8]: 5.94e+06 M⁻¹ s⁻¹
- affinity for activin [9]: low nanomolar to high picomolar range
- affinity for GDF11 [10]: low nanomolar to high picomolar range
- inhibition of GDF-8 activity ([11]; A-204 reporter gene assay): potent inhibitor

B2: ActRIIB(20-119)-Fc: ActRIIB-Fc fusion protein containing amino acids 20-119 of SEQ ID NO: 1 (protein)
chain: GRGEAETRECIYYNANWELERTNQSGLERCEGEQDKRLHCYASWRNSSGTIELVKKGCWLDDFNCYDRQECVATEENPQVYFCCCEGNFCNERFTHLPEA
modifications: Fc fusion, Fc no entry
- binding to activin relative to ActRIIB(20-134)-Fc [12]: reduced binding
- binding to GDF11 relative to ActRIIB(20-134)-Fc [13]: reduced binding

B3: ActRIIB-Fc homodimer: homodimer complex of ActRIIB-Fc fusion polypeptide (protein)
chain: GRGEAETRECIYYNANWELERTNQSGLERCEGEQDKRLHCYASWRNSSGTIELVKKGCWLDDFNCYDRQECVATEENPQVYFCCCEGNFCNERFTHLPEAGGPEVTYEPPPTAPT
modifications: left off: a dimerising Fc or GST
notes: homodimer complex of ActRIIB-Fc fusion polypeptide
- inhibition of activin A signaling ([4]; Example 13): potent inhibitors
- inhibition of GDF11 signaling ([5]; Example 13): potent inhibitors
- Kd [14]: 0.011 nM
- ka, BMP10 [14]: 2.3e+07 M⁻¹ s⁻¹
- kd, BMP10 [14]: 0.00026 s⁻¹
- ka, BMP6 [15]: 3.2e+07 M⁻¹ s⁻¹
- kd, BMP6 [15]: 0.0068 s⁻¹
- Kd [16]: 0.077 nM
- ka, BMP9 [16]: 1.4e+07 M⁻¹ s⁻¹
- kd, BMP9 [16]: 0.0011 s⁻¹
- ka, GDF11 [17]: 5e+07 M⁻¹ s⁻¹
- kd, GDF11 [17]: 0.00011 s⁻¹
- Kd ([17]; † = very low signal): 0.002 nM
- Kd [18]: 1.5 nM
- ka, GDF3 [18]: 1.4e+06 M⁻¹ s⁻¹
- kd, GDF3 [18]: 0.0022 s⁻¹
- ka, GDF8 [19]: 830000 M⁻¹ s⁻¹
- kd, GDF8 [19]: 0.00023 s⁻¹
- Kd ([19]; † = very low signal): 0.28 nM
- ka, Activin A [20]: 1.2e+07 M⁻¹ s⁻¹
- kd, Activin A [20]: 0.00023 s⁻¹
- ka, Activin B [21]: 5.1e+06 M⁻¹ s⁻¹
- kd, Activin B [21]: 0.0001 s⁻¹
- inhibition of GDF8 signaling ([11]; Example 13): potent inhibitors
- inhibition of activin B signaling [22]: potent inhibitors
